The record followed here is publication PMC6158253.

In this data set the test system is T1, BmoR (MarR-type regulator) (Bacteroides fragilis 638R), ORF:dbdd3c1d.
T1 sequence: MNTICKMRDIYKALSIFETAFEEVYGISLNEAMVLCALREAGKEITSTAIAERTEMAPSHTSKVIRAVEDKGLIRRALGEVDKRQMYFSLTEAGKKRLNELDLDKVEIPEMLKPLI
Put plainly: EMSA. On the technique in general: In EMSA bound probe runs differently from free probe, usually more slowly.
As for “CGTCTGACAGCAAGATAAAGTCCCTTAAAAGGGCCATGTTTCTTAATCGCTTCAATAGCGTATTGCGAACAAGTAGGAGTGAAACGACATGAAGGAGGAGT (double strand) [hlyD fragment (non-competitor DNA), 101 bp]”, the binding result is “no binding”.

For “CCTGCTACGCCTCCAATAATAATAATCTTCATTTGAATATATTTTCGTTTTAAAATAGTTTCCTATGGAAATAAACGTTTGCCGACTTAAAAAGGTTCATGGAAAAGCTTAAAAAATTAACAAGTATGGGTTATCTTACTTACGGAAGTGC (double strand) [BF638R_0572-bmoR operon promoter (bmoO), 151 bp]”, the binding result was “binds”.

Regarding “ACGAGACCGATAAATGTGAGTCGGTTCTTTTTCAAAAATGCTTTAATCATCTTTATTTCAGGGTGTTTTAGAATCTGTCTGAATTTTGTTCGAGATTGTTTTGAGATTTATTTTCAAGGATATTCTCTTGTCTCTGTGAAGGCATAGCGGGCTATGTGACGCATGAAAACA (double strand) [BF638R_2699-2701 operon promoter, 171 bp]”, the binding result was “no binding”.

Consider “CCGGCCTCCATATCAAACAATAACCCGTTGCAACCTATGGATATTGGTGGTGTTCCATTCTATCGTACCTATGCCGTTAATTTAACCGTAAGATTCTAAAACATCTATATTGAAAGATATGAAAACATTTAAATATTTATTTGCAGGAGTTTGTTCCGTGT (double strand) [BF638R_4194 promoter (Methods text says BF638R_4199), 161 bp]”, for which the binding entry is “no binding”.
